Results published in the supplement of paper PMC9112550, “Optimization of the antimicrobial peptide Bac7 by deep mutational scanning” (BMC Biology, 2022).

Test system: Escherichia coli TOP10
Test: shrunken log2 fold change of peptide-encoding DNA abundance (4.5 h post-induction vs induction); higher = less antimicrobial activity (less host growth inhibition)
Conditions: time post-induction: 4.5 h; library: site-saturation at positions 5, 18, 19, 20
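Further: peptides expressed intracellularly from a pBAD plasmid library in pooled LB shake-flask culture, induced with 0.3% L-arabinose, DNA abundance read by NGS, three biological replicates, DESeq2 with apeglm shrinkage.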

Going from RRIRFRPPRLPRPRPRPLRHPRP to RRIRYRPPRLPRPRPRPFMYPRP, the “shrunken log2 fold change” value falls from 0.353 to -1.14.

RRIRHRPPRLPRPRPRPYNCPRP and RRIRCRPPRLPRPRPRPCKSPRP are within 0.2 log units of each other in “shrunken log2 fold change” value: -0.00726 for the first, -0.0591 for the second.

RRIRARPPRLPRPRPRPKNRPRP and RRIRLRPPRLPRPRPRPHRQPRP are within 0.2 log units of each other in “shrunken log2 fold change” value: 0.134 for the first, 0.115 for the second.

First: RRIRIRPPRLPRPRPRPFPDPRP
Second: RRIRVRPPRLPRPRPRPGKLPRP
The “shrunken log2 fold change” value of the first is lower: -0.131 for the first, 0.126 for the second.

Going from RRIRFRPPRLPRPRPRPVSCPRP to RRIRQRPPRLPRPRPRPINIPRP, the “shrunken log2 fold change” value rises from -0.514 to -0.21.

Compared with RRIRLRPPRLPRPRPRPEEGPRP, RRIRARPPRLPRPRPRPRSVPRP is higher in “shrunken log2 fold change” value: -0.115 for the first, 0.665 for the second.

First: RRIRARPPRLPRPRPRPGIVPRP
Second: RRIRRRPPRLPRPRPRPNQEPRP
The “shrunken log2 fold change” value of the first is higher: 0.174 for the first, -0.0479 for the second.

RRIRYRPPRLPRPRPRPICEPRP and RRIRGRPPRLPRPRPRPYFGPRP are within 0.2 log units of each other in “shrunken log2 fold change” value: -0.404 for the first, -0.335 for the second.

RRIRWRPPRLPRPRPRPMGEPRP and RRIRVRPPRLPRPRPRPMEMPRP are within 0.2 log units of each other in “shrunken log2 fold change” value: 0.0775 for the first, -0.0249 for the second.

RRIRDRPPRLPRPRPRPKVEPRP and RRIRHRPPRLPRPRPRPFESPRP are within 0.2 log units of each other in “shrunken log2 fold change” value: 0.109 for the first, -0.00822 for the second.

RRIRRRPPRLPRPRPRPTVSPRP and RRIRDRPPRLPRPRPRPIDYPRP are within 0.2 log units of each other in “shrunken log2 fold change” value: 0.119 for the first, -0.0396 for the second.

First: RRIRYRPPRLPRPRPRPIYGPRP
Second: RRIRMRPPRLPRPRPRPDPVPRP
The “shrunken log2 fold change” value of the first is lower: -0.428 for the first, -0.0377 for the second.

Going from RRIRQRPPRLPRPRPRPPIKPRP to RRIRVRPPRLPRPRPRPGRSPRP, the “shrunken log2 fold change” value rises from -0.0648 to 0.649.

Compared with RRIRCRPPRLPRPRPRPSFTPRP, RRIRDRPPRLPRPRPRPNCSPRP is higher in “shrunken log2 fold change” value: -0.668 for the first, 0.271 for the second.

RRIRNRPPRLPRPRPRPNGEPRP and RRIRLRPPRLPRPRPRPGFLPRP are within 0.2 log units of each other in “shrunken log2 fold change” value: 0.0257 for the first, 0.0856 for the second.

First: RRIRLRPPRLPRPRPRPPIPPRP
Second: RRIRYRPPRLPRPRPRPFGFPRP
The “shrunken log2 fold change” value of the first is higher: 0.316 for the first, -0.918 for the second.

Compared with RRIRSRPPRLPRPRPRPCDFPRP, RRIRVRPPRLPRPRPRPEWYPRP is lower in “shrunken log2 fold change” value: -0.108 for the first, -0.419 for the second.

RRIRRRPPRLPRPRPRPEYTPRP and RRIRPRPPRLPRPRPRPKGTPRP are within 0.2 log units of each other in “shrunken log2 fold change” value: 0.166 for the first, 0.0309 for the second.

RRIRGRPPRLPRPRPRPHCQPRP and RRIRMRPPRLPRPRPRPIICPRP are within 0.2 log units of each other in “shrunken log2 fold change” value: -0.058 for the first, -0.00127 for the second.

RRIRSRPPRLPRPRPRPAKCPRP and RRIRDRPPRLPRPRPRPQQMPRP are within 0.2 log units of each other in “shrunken log2 fold change” value: 0.0862 for the first, -0.0585 for the second.

Going from RRIRKRPPRLPRPRPRPSGAPRP to RRIRTRPPRLPRPRPRPYLYPRP, the “shrunken log2 fold change” value falls from 0.539 to -0.702.

Going from RRIRVRPPRLPRPRPRPRMMPRP to RRIRIRPPRLPRPRPRPSICPRP, the “shrunken log2 fold change” value falls from 0.0121 to -0.814.

First: RRIRNRPPRLPRPRPRPWAVPRP
Second: RRIRVRPPRLPRPRPRPEVMPRP
The “shrunken log2 fold change” value of the first is lower: 0.0374 for the first, 0.344 for the second.

RRIRRRPPRLPRPRPRPYQYPRP and RRIRPRPPRLPRPRPRPDVYPRP are within 0.2 log units of each other in “shrunken log2 fold change” value: -0.0327 for the first, -0.194 for the second.

Going from RRIRFRPPRLPRPRPRPTAQPRP to RRIRIRPPRLPRPRPRPNHCPRP, the “shrunken log2 fold change” value falls from -0.00528 to -0.937.

Going from RRIRFRPPRLPRPRPRPYVPPRP to RRIRKRPPRLPRPRPRPMWSPRP, the “shrunken log2 fold change” value rises from -0.238 to 0.123.

First: RRIRQRPPRLPRPRPRPKFSPRP
Second: RRIRERPPRLPRPRPRPISHPRP
The “shrunken log2 fold change” value of the first is lower: -0.914 for the first, -0.678 for the second.

Compared with RRIRYRPPRLPRPRPRPIVWPRP, RRIRARPPRLPRPRPRPKQDPRP is higher in “shrunken log2 fold change” value: 0.0267 for the first, 0.734 for the second.

RRIRFRPPRLPRPRPRPWTRPRP and RRIRNRPPRLPRPRPRPMFVPRP are within 0.2 log units of each other in “shrunken log2 fold change” value: -0.0481 for the first, 0.134 for the second.

First: RRIRGRPPRLPRPRPRPKQAPRP
Second: RRIRNRPPRLPRPRPRPVYAPRP
The “shrunken log2 fold change” value of the first is higher: 0.865 for the first, -0.128 for the second.

Going from RRIRLRPPRLPRPRPRPCFTPRP to RRIRIRPPRLPRPRPRPCNGPRP, the “shrunken log2 fold change” value rises from -0.497 to -0.0882.

Going from RRIRQRPPRLPRPRPRPVFIPRP to RRIRFRPPRLPRPRPRPSAPPRP, the “shrunken log2 fold change” value rises from -0.288 to -0.0675.

First: RRIRRRPPRLPRPRPRPFYKPRP
Second: RRIRLRPPRLPRPRPRPWGVPRP
The “shrunken log2 fold change” value of the first is lower: -0.173 for the first, 0.0612 for the second.

Going from RRIRVRPPRLPRPRPRPGRAPRP to RRIRYRPPRLPRPRPRPKPAPRP, the “shrunken log2 fold change” value falls from 0.685 to -0.0511.

Compared with RRIRGRPPRLPRPRPRPEWNPRP, RRIRFRPPRLPRPRPRPTYQPRP is lower in “shrunken log2 fold change” value: 1.71 for the first, -0.393 for the second.

RRIRIRPPRLPRPRPRPQRVPRP and RRIRTRPPRLPRPRPRPKDIPRP are within 0.2 log units of each other in “shrunken log2 fold change” value: -0.406 for the first, -0.482 for the second.

Going from RRIRSRPPRLPRPRPRPEDQPRP to RRIRIRPPRLPRPRPRPFVQPRP, the “shrunken log2 fold change” value falls from 0.106 to -0.634.

With RRIRQRPPRLPRPRPRPMRGPRP the “shrunken log2 fold change” value was 0.904.
